# Experiments:
# Assay in all cases: SPR (BIACORE); KD of SG1 / KD of variant;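 note: relative to parent M103205H795-SG1 carrying the SG1 human heavy chain constant region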
# [1] = target: T1, cynomolgus monkey FcγRIIa1 extracellular domain, C-terminal His-tag (cynomolgus monkey)
# T1 construct: also called cyno FcγRIIa1; cynoFcgRIIa1; not shown: His-tag added to C-terminus
# T1 chain: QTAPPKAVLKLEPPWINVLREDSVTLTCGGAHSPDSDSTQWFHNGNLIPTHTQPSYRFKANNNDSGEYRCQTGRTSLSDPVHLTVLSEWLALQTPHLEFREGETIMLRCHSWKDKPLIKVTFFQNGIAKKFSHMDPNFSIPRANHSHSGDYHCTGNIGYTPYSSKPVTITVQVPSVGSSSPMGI
# Procedure: (§1) The kinetic analysis of interactions between these antibodies and FcγR was carried out using BIACORE® T200 or BIACORE® 4000 (GE Healthcare). HBS-EP+ (GE Healthcare) was used as the running buffer, and the measurement temperature was set to 25° C. A chip produced by immobilizing Protein A. Protein A/G or mouse anti-human IgG kappa light chain (BD Biosciences) onto a Series S Sensor Chip CM4 or CM5 (GE Healthcare) by the amine-coupling method was used. […] After the measurement, the antibody captured on the chip was washed off by allowing reaction with 10 mM glycine-HCl, pH1.5 and 25 mM NaOH so that the chip was regenerated and used repeatedly. The sensorgrams obtained as measurement results were analyzed by the 1:1 Langmuir binding model using the BIACORE® Evaluation Software to calculate the binding rate constant ka (L/mol/s) and dissociation rate constant kd (l/s), and the dissociation constant KD (mol/L) was calculated from these values. […] Regarding such interactions, KD values were calculated using the following 1:1 binding model described in BIACORE® T100 Software Handbook BR1006-48 Edition AE.
# (§2) The behavior of interacting molecules according to the 1:1 binding model on BIACORE® can be described by Equation 1: Req=C·R max/(KD+C)+RI, wherein, Req is a plot of steady-state binding levels to analyte concentration. C is concentration, RI is bulk refractive index contribution in the sample, and Rmax is analyte binding capacity of the surface. When this equation is rearranged, KD can be expressed as Equation 2: KD=C·Rmax/(Req−RI)−C. KD can be calculated by substituting the values of Rmax, RI, and C into Equation 1 or Equation 2. From the current measurement conditions, RI=0, C=2 μmol/L can be used.
# [2] = target: T2, cynomolgus monkey FcγRIIa2 extracellular domain, C-terminal His-tag (cynomolgus monkey)
# T2 construct: also called cyno FcγRIIa2; cynoFcgRIIa2; not shown: His-tag added to C-terminus
# T2 chain: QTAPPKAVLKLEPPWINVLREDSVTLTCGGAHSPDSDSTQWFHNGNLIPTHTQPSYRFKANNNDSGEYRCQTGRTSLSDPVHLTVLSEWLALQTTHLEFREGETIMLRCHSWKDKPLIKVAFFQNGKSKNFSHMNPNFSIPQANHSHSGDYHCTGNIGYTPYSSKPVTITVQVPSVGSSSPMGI
# Procedure: as §1, §2
# [3] = target: T3, cynomolgus monkey FcγRIIa3 extracellular domain, C-terminal His-tag (cynomolgus monkey)
# T3 construct: also called cyno FcγRIIa3; cynoFcgRIIa3; not shown: His-tag added to C-terminus
# T3 chain: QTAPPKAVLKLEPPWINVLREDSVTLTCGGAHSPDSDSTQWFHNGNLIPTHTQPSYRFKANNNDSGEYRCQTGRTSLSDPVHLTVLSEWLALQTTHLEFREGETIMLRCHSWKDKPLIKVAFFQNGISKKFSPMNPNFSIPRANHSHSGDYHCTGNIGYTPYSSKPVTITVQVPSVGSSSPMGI
# Procedure: as §1, §2
# [4] = target: T4, cynomolgus monkey FcγRIIb extracellular domain, C-terminal His-tag (cynomolgus monkey)
# T4 construct: also called cyno FcγRIIb; cynoFcγRIIb; not shown: His-tag added to C-terminus
# T4 chain: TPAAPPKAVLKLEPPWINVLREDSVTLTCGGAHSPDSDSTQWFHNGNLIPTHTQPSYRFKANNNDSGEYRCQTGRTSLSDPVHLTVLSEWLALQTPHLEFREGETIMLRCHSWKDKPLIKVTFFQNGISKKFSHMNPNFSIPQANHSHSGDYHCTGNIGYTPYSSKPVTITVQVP
# Procedure: as §1, §2
# [5] = target: T5, cynomolgus monkey FcγRIIIaS extracellular domain, C-terminal His-tag (cynomolgus monkey, UniProt A3RFZ7 21-206 (rhesus entry))
# T5 construct: also called cyno FcγRIIIaS; cynoFcγRIIIaS; not shown: His-tag added to C-terminus
# Procedure: as §1, §2
# [6] = target: T6, human FcγRIIaH extracellular domain, C-terminal His-tag (human, UniProt P12318 34-217)
# T6 construct: also called human FcγRIIa (type H); FcgRIIaH; not shown: His-tag added to C-terminus
# T6 sequence: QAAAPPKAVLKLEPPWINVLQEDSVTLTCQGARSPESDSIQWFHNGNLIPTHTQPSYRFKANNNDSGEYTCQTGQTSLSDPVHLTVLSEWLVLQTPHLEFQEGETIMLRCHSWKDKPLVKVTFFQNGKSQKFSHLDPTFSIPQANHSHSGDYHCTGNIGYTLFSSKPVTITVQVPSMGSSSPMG
# Procedure: as §1, §2
# [7] = target: T7, human FcγRIIaR extracellular domain, C-terminal His-tag (human, UniProt P12318 34-217)
# T7 construct: also called human FcγRIIa (type R); FcgRIIaR; not shown: His-tag added to C-terminus
# T7 chain: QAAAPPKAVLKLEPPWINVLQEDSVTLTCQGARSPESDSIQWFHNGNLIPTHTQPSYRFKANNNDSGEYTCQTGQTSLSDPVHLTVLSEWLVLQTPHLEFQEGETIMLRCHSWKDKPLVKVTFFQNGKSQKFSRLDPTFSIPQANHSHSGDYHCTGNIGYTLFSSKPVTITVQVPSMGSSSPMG
# Procedure: as §1, §2
# [8] = target: T8, human FcγRIIb extracellular domain, C-terminal His-tag (human, UniProt P31994 43-217)
# T8 construct: also called humanFcgRIIb; not shown: His-tag added to C-terminus
# T8 sequence: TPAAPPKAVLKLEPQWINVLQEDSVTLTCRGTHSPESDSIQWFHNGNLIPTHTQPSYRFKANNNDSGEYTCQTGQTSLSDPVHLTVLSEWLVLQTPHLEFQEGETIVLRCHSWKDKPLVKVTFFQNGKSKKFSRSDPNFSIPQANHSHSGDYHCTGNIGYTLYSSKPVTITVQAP
# Procedure: as §1, §2
# [9] = target: T9, human FcγRIIIaV extracellular domain, C-terminal His-tag (human, UniProt P08637 17-208)
# T9 construct: also called FcgRIIIaV; not shown: His-tag added to C-terminus
# Procedure: as §1, §2
# T5 sequence (A3RFZ7 21-206): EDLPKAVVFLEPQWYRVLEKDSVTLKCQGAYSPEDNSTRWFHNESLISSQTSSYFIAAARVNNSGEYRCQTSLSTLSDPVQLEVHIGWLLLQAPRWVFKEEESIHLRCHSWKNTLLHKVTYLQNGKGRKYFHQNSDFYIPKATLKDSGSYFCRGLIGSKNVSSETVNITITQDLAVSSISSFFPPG
# T9 sequence (P08637 17-208 F176V): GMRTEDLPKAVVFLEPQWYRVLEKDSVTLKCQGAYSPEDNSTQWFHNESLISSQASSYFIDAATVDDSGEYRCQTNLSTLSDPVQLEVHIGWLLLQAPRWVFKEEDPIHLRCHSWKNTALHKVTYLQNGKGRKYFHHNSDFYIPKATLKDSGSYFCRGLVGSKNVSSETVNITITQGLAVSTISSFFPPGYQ
KD fold (SG1 = 1) [1] [fold],KD fold (SG1 = 1) [2] [fold],KD fold (SG1 = 1) [3] [fold],KD fold (SG1 = 1) [4] [fold],KD fold (SG1 = 1) [5] [fold],KD fold (SG1 = 1) [6] [fold],KD fold (SG1 = 1) [7] [fold],KD fold (SG1 = 1) [8] [fold],KD fold (SG1 = 1) [9] [fold],Binder
2.5,3.9,14.2,4.3,0.22,4.1,3.8,3.8,0.19,"M103205H795-MY534 / M103202L889-SK1 (antibody, human IgG1, kappa) heavy: QVTLKESGPVLVKPTETLTLTCTVSGIDLSHDDISWVRQAPGKGLEWVGIISYAGSTYYASWAKGRLTISKDTSKNQVVLTMTNMDPVDTATYYCARGVPAYSHGGDLWGQGTLVTVSSASTKGPSVFPLAPSSKSTSGGTAALGCLVKDYFPEPVTVSWNSGALTSGVHTFPAVLQSSGLYSLSSVVTVPSSSLGTQTYICNVNHKPSNTKVDKKVEPKSCDKTHTCPPCPAPELLTGPVVFLFPPKPKDTLMISRTPEVTCVVVDVSDEDPEVKFNWYVDGVEVHNAKTKPREELYNSTYRVVSVLTVLHQDWLNGKEYKCKVSNKALPKPIEKTISKAKGQPREPQVYTLPPSREEMTKNQVSLTCLVKGFYPSDIAVEWESNGQPENNYKTTPPVLDSDGSFFLYSKLTVDKSRWQQGNVFSCSVMHEALHNHYTQKSLSLSP light: DIVMTQSPATLSLSPGERATLSCTSSQSVYHANWLSWFQQKPGQPPKLLIYWASTLAYGVPSRFSGSGSGTDFTLTISSLQPEDAATYYCAGGYGGGRYAFGQGTKVEIKRTVAAPSVFIFPPSDEQLKSGTASVVCLLNNFYPREAKVQWKVDNALQSGNSQESVTEQDSKDSTYSLSSTLTLSKADYEKHKVYACEVTHQGLSSPVTKSFNRGEC"
4,7,14.2,7.2,0.33,3.3,5.5,4.5,0.45,"M103205H795-MY533 / M103202L889-SK1 (antibody, human IgG1, kappa) heavy: QVTLKESGPVLVKPTETLTLTCTVSGIDLSHDDISWVRQAPGKGLEWVGIISYAGSTYYASWAKGRLTISKDTSKNQVVLTMTNMDPVDTATYYCARGVPAYSHGGDLWGQGTLVTVSSASTKGPSVFPLAPSSKSTSGGTAALGCLVKDYFPEPVTVSWNSGALTSGVHTFPAVLQSSGLYSLSSVVTVPSSSLGTQTYICNVNHKPSNTKVDKKVEPKSCDKTHTCPPCPAPEWLTGPVVFLFPPKPKDTLMISRTPEVTCVVVDVSDEDPEVKFNWYVDGVEVHNAKTKPREELYNSTYRVVSVLTVLHQDWLNGKEYKCKVSNKALPKPIEKTISKAKGQPREPQVYTLPPSREEMTKNQVSLTCLVKGFYPSDIAVEWESNGQPENNYKTTPPVLDSDGSFFLYSKLTVDKSRWQQGNVFSCSVMHEALHNHYTQKSLSLSP light: DIVMTQSPATLSLSPGERATLSCTSSQSVYHANWLSWFQQKPGQPPKLLIYWASTLAYGVPSRFSGSGSGTDFTLTISSLQPEDAATYYCAGGYGGGRYAFGQGTKVEIKRTVAAPSVFIFPPSDEQLKSGTASVVCLLNNFYPREAKVQWKVDNALQSGNSQESVTEQDSKDSTYSLSSTLTLSKADYEKHKVYACEVTHQGLSSPVTKSFNRGEC"

# Reference: US20200317768A1 (published 2020)
